Target: Aβ1-40 (human)
Experiment: ELISA

Kd: 2 nM
Substance: clusterin (human plasma apolipoprotein J) (from UniProt P10909 23-227; P10909 228-449) (natural protein)

Reference: PMC8440498
